Experimental data as given in paper doi:10.1101/2022.03.02.482667 (bioRxiv, 2022).
Read-outs that look alike come from different tables or passages of the source. Where no end group is shown, it is not given here. Ahx = NCCCCCC(=O)O

Tests used:
His-tagged G3BP1 NTF2 [1] = biological target: T1, His-tagged G3BP1 NTF2 (human, UniProt Q13283 1-139); assay: peptide or protein array
His-tagged G3BP1 NTF2 [2] = biological target: T1, His-tagged G3BP1 NTF2; assay: peptide or protein array; remark: listed apart in the source
[3] = biological target: G3BP1 NTF2 (1-139) F15/33W (human, UniProt Q13283 1-139, F15W | F33W); assay: fluorescence polarisation
[4] = biological target: G3BP1 NTF2 (1-139) TripleW (F15W/F33W/F124W) (human, UniProt Q13283 1-139, F15W | F33W | F124W); assay: fluorescence polarisation
G3BP1 NTF2 (1-139) S38T = G3BP1 NTF2 (1-139) S38T (human, UniProt Q13283 1-139, S38T); assay: fluorescence polarisation
G3BP1 NTF2 (1-139) S38G = G3BP1 NTF2 (1-139) S38G (human, UniProt Q13283 1-139, S38G); assay: fluorescence polarisation
[5] = biological target: G3BP1 NTF2 (1-139) F33/124W (human, UniProt Q13283 1-139, F33W | F124W); assay: fluorescence polarisation
[6] = biological target: G3BP1 NTF2 domain (residues 1-139) WT (human, UniProt Q13283 1-139); assay: fluorescence polarisation
G3BP1 NTF2 (1-139) S38A = G3BP1 NTF2 (1-139) S38A (human, UniProt Q13283 1-139, S38A); assay: fluorescence polarisation
[7] = biological target: G3BP1 NTF2 (1-139) F15/124W (human, UniProt Q13283 1-139, F15W | F124W); assay: fluorescence polarisation
G3BP1 NTF2 (1-139) F15W = G3BP1 NTF2 (1-139) F15W (human, UniProt Q13283 1-139, F15W); assay: fluorescence polarisation
G3BP1 NTF2 (1-139) F15W, sequence (Q13283 1-139 F15W): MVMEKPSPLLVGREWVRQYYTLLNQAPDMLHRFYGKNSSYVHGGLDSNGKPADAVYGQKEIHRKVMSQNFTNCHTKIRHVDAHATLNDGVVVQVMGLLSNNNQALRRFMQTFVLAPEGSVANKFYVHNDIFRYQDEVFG

T1 sequence (Q13283 1-139): as the sequence (Q13283 1-139 F15W) above, with W15F counted along it
G3BP1 NTF2 (1-139) F15/33W, sequence (Q13283 1-139 F15W/F33W): as the sequence (Q13283 1-139 F15W) above, with F33W counted along it
G3BP1 NTF2 (1-139) S38G, sequence (Q13283 1-139 S38G): as the sequence (Q13283 1-139 F15W) above, with W15F, S38G counted along it
G3BP1 NTF2 (1-139) S38A, sequence (Q13283 1-139 S38A): as the sequence (Q13283 1-139 F15W) above, with W15F, S38A counted along it
G3BP1 NTF2 (1-139) S38T, sequence (Q13283 1-139 S38T): as the sequence (Q13283 1-139 F15W) above, with W15F, S38T counted along it
G3BP1 NTF2 domain (residues 1-139) WT, sequence (Q13283 1-139): as the sequence (Q13283 1-139 F15W) above, with W15F counted along it
G3BP1 NTF2 (1-139) F15/124W, sequence (Q13283 1-139 F15W/F124W): as the sequence (Q13283 1-139 F15W) above, with F124W counted along it
G3BP1 NTF2 (1-139) TripleW (F15W/F33W/F124W), sequence (Q13283 1-139 F15W/F33W/F124W): as the sequence (Q13283 1-139 F15W) above, with F33W, F124W counted along it
G3BP1 NTF2 (1-139) F33/124W, sequence (Q13283 1-139 F33W/F124W): as the sequence (Q13283 1-139 F15W) above, with W15F, F33W, F124W counted along it

Row | Binder | binding result (His-tagged G3BP1 NTF2 [1]) | further results
1 | QGPYCFIQDSMLDFENQTLD [Caprin1 array peptide N371C] | binds | 
2 | QGPYNFIQDCMLDFENQTLD [Caprin1 array peptide S376C] | binds | 
3 | QGPYNFIQDSMLDFENQTLD [native Caprin1 array peptide QGPYNFIQDSMLDFENQTLD] | binds | 
4 | QGPYIFIQDSMLDFENQTLD [Caprin1 array peptide N371I] | binds | 
5 | QGPYNFIQESMLDFENQTLD [Caprin1 array peptide D375E] | binds | 
6 | HSPQYIFGDISPDEFNQFFV [USP10 array peptide F13I] |  | binding result (His-tagged G3BP1 NTF2 [2]): binds
7 | HSPQYIFGDFSPDEFNQFFV [native USP10 array peptide HSPQYIFGDFSPDEFNQFFV] |  | binding result (His-tagged G3BP1 NTF2 [2]): binds
8 | QGPYRFIQDSMLDFENQTLD [Caprin1 array peptide N371R] | binds | 
9 | QGPYNFFQDSMLDFENQTLD [Caprin1 array peptide I373F] | binds | 
10 | QGPYWFIQDSMLDFENQTLD [Caprin1 array peptide N371W] | binds | 
11 | QGPYNFIQDSYLDFENQTLD [Caprin1 array peptide M377Y] | binds | 
12 | HSPQYIVGDFSPDEFNQFFV [USP10 array peptide F10V] |  | binding result (His-tagged G3BP1 NTF2 [2]): binds
13 | HSPQYIFGDVSPDEFNQFFV [USP10 array peptide F13V] |  | binding result (His-tagged G3BP1 NTF2 [2]): binds
14 | QGPYMFIQDSMLDFENQTLD [Caprin1 array peptide N371M] | binds | 
15 | QGPYVFIQDSMLDFENQTLD [Caprin1 array peptide N371V] | binds | 
16 | QGPYHFIQDSMLDFENQTLD [Caprin1 array peptide N371H] | binds | 
17 | QGPYNFLQDSMLDFENQTLD [Caprin1 array peptide I373L] | binds | 
18 | QGPYFFIQDSMLDFENQTLD [Caprin1 array peptide N371F] | binds | 
19 | HSPQYIYGDFSPDEFNQFFV [USP10 array peptide F10Y] |  | binding result (His-tagged G3BP1 NTF2 [2]): binds
20 | HSPQYIFGDYSPDEFNQFFV [USP10 array peptide F13Y] |  | binding result (His-tagged G3BP1 NTF2 [2]): binds
21 | {fluorescein-Ahx}-YNFIQDSMLDFE [Caprin1-derived dodecamer reporter peptide F*-YNFIQDSMLDFE] |  | binding result [3]: binds; binding result [4]: binds; binding result (G3BP1 NTF2 (1-139) S38T): binds; binding result (G3BP1 NTF2 (1-139) S38G): binds; binding result [5]: binds; Kd [6]: 1.7 µM; binding result (G3BP1 NTF2 (1-139) S38A): binds; binding result [7]: binds; Kd (G3BP1 NTF2 (1-139) F15W): 9.3 µM
22 | HSPQYIIGDFSPDEFNQFFV [USP10 array peptide F10I] |  | binding result (His-tagged G3BP1 NTF2 [2]): binds
23 | HSPQYIFGDWSPDEFNQFFV [USP10 array peptide F13W] |  | binding result (His-tagged G3BP1 NTF2 [2]): binds
24 | HSPQYIFGDLSPDEFNQFFV [USP10 array peptide F13L] |  | binding result (His-tagged G3BP1 NTF2 [2]): binds
25 | HSPQYIFADFSPDEFNQFFV [USP10 array peptide G11A] |  | binding result (His-tagged G3BP1 NTF2 [2]): binds
26 | HSPQYILGDFSPDEFNQFFV [USP10 array peptide F10L] |  | binding result (His-tagged G3BP1 NTF2 [2]): binds

Now from value to binder, other results behind:

Row | binding result (His-tagged G3BP1 NTF2 [1]) | Binder | further results
27 | binds | QGPYNFIQDSFLDFENQTLD [Caprin1 array peptide M377F] | 
28 | binds | QGPYQFIQDSMLDFENQTLD [Caprin1 array peptide N371Q] | 
29 | binds | QGPFNFIQDSMLDFENQTLD [Caprin1 array peptide Y370F] | 
30 | binds | QGPYTFIQDSMLDFENQTLD [Caprin1 array peptide N371T] | 
31 | binds | QGPYKFIQDSMLDFENQTLD [Caprin1 array peptide N371K] | 
32 | binds | QGPYEFIQDSMLDFENQTLD [Caprin1 array peptide N371E] | 
33 | binds | QGPYLFIQDSMLDFENQTLD [Caprin1 array peptide N371L] | 
34 | binds | QGPYYFIQDSMLDFENQTLD [Caprin1 array peptide N371Y] | 
35 | binds | QGPYNFIQDSMIDFENQTLD [Caprin1 array peptide L378I] | 
36 | binds | QGPYSFIQDSMLDFENQTLD [Caprin1 array peptide N371S] | 
37 | binds | QGPYDFIQDSMLDFENQTLD [Caprin1 array peptide N371D] | 
